Results taken from patent publication US20220064272A1 (TAUC3 BIOLOGICS, published 2022).
“And” between values parts separate entries of the source, which are not always exact repeats. Equal values may be shown once.

What was measured:
[1] = target: T1, TauC3 (C-terminally truncated tau fragment ending at aspartate 421 of htau40) (human, UniProt P10636 1-738); experiment: binding ELISA on coated TauC3, OD650
T1 construct: Generated and purified by Genscript; also called Human TauC3; recombinant TauC3 protein
T1 sequence (P10636 other isoform, or with tags, fused parts or gaps): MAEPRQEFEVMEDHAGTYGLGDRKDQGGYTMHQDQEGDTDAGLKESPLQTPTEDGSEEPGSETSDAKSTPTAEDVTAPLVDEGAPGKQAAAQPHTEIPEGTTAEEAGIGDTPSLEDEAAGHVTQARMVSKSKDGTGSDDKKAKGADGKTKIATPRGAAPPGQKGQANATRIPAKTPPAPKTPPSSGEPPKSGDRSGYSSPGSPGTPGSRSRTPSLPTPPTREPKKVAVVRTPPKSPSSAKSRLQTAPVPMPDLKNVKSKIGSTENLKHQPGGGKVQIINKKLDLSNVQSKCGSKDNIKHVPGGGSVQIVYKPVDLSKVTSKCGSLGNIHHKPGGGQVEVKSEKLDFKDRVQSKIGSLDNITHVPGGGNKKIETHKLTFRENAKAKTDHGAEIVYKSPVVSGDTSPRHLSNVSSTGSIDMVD
Summary of the method: (§1)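 Binding ELISA on coated TauC3 antigen, which was made and purified by Genscript. Chimeric or humanized IgG4κ antibodies were expressed in ExpiCHO cells. Binding was read as absorbance at 650 nm. EC50 was derived from the antibody concentration-response.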

[2] = target: T1, TauC3 (C-terminally truncated tau …); experiment: binding ELISA on coated TauC3, OD650; right table (HM variants)
Summary of the method: as §1

[3] = target: T1, TauC3 (C-terminally truncated tau …); experiment: Biacore off-rate ranking, TauC3 amine-coupled on CM5, one antibody concentration; one-phase exponential decay fit
Description: (§2) To further evaluate the binding data observed on the Octet, an off-rate ranking experiment was performed on the Biacore 200 instrument. Biacore offers greater selectivity than the Octet and facilitated the immobilization of TauC3 onto a CM5 chip via amine coupling which stabilizes the antigen. This produces higher quality data with stable baselines and good reproducible responses. Once TauC3 is immobilized, one concentration (5 nM) of antibody is added, followed by a dissociation and regeneration step (Section 8.20). The off-rates were fitted using a two-phase decay model (FIG. 25B) or a one phase decay fitting only the second off-rate (FIG. 25A). The candidates were then ranked based on the off-rates obtained using the fits and compared. The data agreed with the Octet results (albeit with a different ranking order), highlighting Tau01 HMKM, HMKO, HMKP, HMKN and HMKE as the humanized variants with the slowest off-rates. The lack of binding of FL Tau to chimeric and a humanized candidate was also confirmed by Biacore by loading the antibody onto a Protein G chip and adding 250 nM FL Tau.

[4] = target: T1, TauC3 (C-terminally truncated tau …); experiment: Biacore off-rate ranking, TauC3 amine-coupled on CM5, one antibody concentration; two-phase decay fit, slow phase; parameters: unit not given here
Description: as §2

[5] = target: T1, TauC3 (C-terminally truncated tau …); experiment: binding ELISA on coated TauC3, OD650; left table (HC variants)
Summary of the method: as §1

[6] = target: T1, TauC3 (C-terminally truncated tau …); experiment: binding ELISA on coated TauC3, OD650; remark: listed apart in the source
Summary of the method: as §1

[7] = target: T1, TauC3 (C-terminally truncated tau …); experiment: SPR (Biacore) kinetics, TauC3 amine-coupled on CM5, 1:1 global fit
Summary of the method: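 Each purified antibody was injected at a series of concentrations over a CM5 chip carrying amine-coupled purified antigen, with readout by Biacore surface plasmon resonance. A global fit gave Kd together with the association and dissociation rates. The fit model was 1:1.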

[8] = target: T1, TauC3 (C-terminally truncated tau …); experiment: Biacore kinetics, TauC3 amine-coupled on CM5, antibody series, 1:1 global fit
Source text: To determine the affinity of the binding interactions, a biacore kinetic assay was developed which involved immobilizing TauC3 on a CM5 chip via amine coupling and injecting a concentration series of the respective antibody over it.

B1: HBKD (antibody, V domains shown)
VH: EVQVVESGGGLVQPGGSLKLSCAASGFTFNTYAMNWVRQASGKGLEWVARIRSKSNNYATYYADSVKGRFTISRDDSKSMVYLQMDSLKTEDTAVYYCVGGGDFWGQGTLVTVSS
VL: DIQMTQSPSSLSASVGDRVTITCRASQEISVYLSWYQQKPGKAPKRLIYGAFKLQSGVPSRFSGSRSGTEFTLTISSLQPEDFATYYCLQYVRYPWTFGGGTKVEIK
notes: humanized variant, HB with KD; also called Tau01 HBKD HuG4K
[1]
  EC50: 3.04 nM

B2: Tau01 HMKC (antibody, V domains shown)
VH: LVQLVESGGGLVQPGGSLKLSCAASGFTFNTYAMNWVRQASGKGLEWVARIRSKSNNYATYYAASVKGRFTISRDDSKSMAYLQMDSLKTEDTAVYYCVGGGDFWGQGTLVTVSS
VL: DIQMTQSPSSLSASVGDRVTITCRASQEISVYLSWFQQKPGKAPKRLIYGAFKLQSGVPSRFSGSRSGTEYTLTISSLQPEDFATYYCLQYVRYPWTFGGGTKVEIK
notes: human IgG4 kappa (HuG4K)
[2]
  EC50: 0.433 nM and 0.718 nM
[3]
  koff: 0.000843 s⁻¹
[4]
  Kslow: 0.000711

B3: Tau01 HBKG (antibody, V domains shown)
VH: EVQVVESGGGLVQPGGSLKLSCAASGFTFNTYAMNWVRQASGKGLEWVARIRSKSNNYATYYADSVKGRFTISRDDSKSMVYLQMDSLKTEDTAVYYCVGGGDFWGQGTLVTVSS
VL: DIQMTQSPSSLSASVGDRVTITCRASQEISVYLGWYQQKPGKAPKRLIYGAFTLQSGVPSRFSGSRSGTEFTLTISSLQPEDFATYYCLQYVRYPWTFGGGTKVEIK
notes: human IgG4 kappa (HuG4K)
[1]
  EC50: 0.761 nM

B4: Tau01 HCKP (antibody, V domains shown)
VH: LVQLVESGGGLVQPGGSLKLSCAASGFTFNTYAMNWVRQASGKGLEWVGRIRSKSNNYATYYAASVKGRFTISRDDSKSMAYLQMDSLKTEDTAVYYCVGGGDFWGQGTLVTVSS
VL: DIQMTQSPSSLSASVGDRVTITCRASQEISVYLGWFQQKPGKAPKRLIYGAFKLQSGVPSRFSGSRSGTEYTLTISSLQPEDFATYYCLQYVRYPWTFGGGTKVEIK
notes: human IgG4 kappa (HuG4K)
[5]
  EC50: 0.821 nM

B5: Tau01 HBKE (antibody, V domains shown)
VH: EVQVVESGGGLVQPGGSLKLSCAASGFTFNTYAMNWVRQASGKGLEWVARIRSKSNNYATYYADSVKGRFTISRDDSKSMVYLQMDSLKTEDTAVYYCVGGGDFWGQGTLVTVSS
VL: DIQMTQSPSSLSASVGDRVTITCRASQEISVYLGWFQQKPGKAPKRLIYGAFKLQSGVPSRFSGSRSGTEFTLTISSLQPEDFATYYCLQYVRYPWTFGGGTKVEIK
notes: human IgG4 kappa (HuG4K)
[1]
  EC50: 0.915 nM

B6: HCKD (antibody, V domains shown)
VH: LVQLVESGGGLVQPGGSLKLSCAASGFTFNTYAMNWVRQASGKGLEWVGRIRSKSNNYATYYAASVKGRFTISRDDSKSMAYLQMDSLKTEDTAVYYCVGGGDFWGQGTLVTVSS
VL: DIQMTQSPSSLSASVGDRVTITCRASQEISVYLSWYQQKPGKAPKRLIYGAFKLQSGVPSRFSGSRSGTEFTLTISSLQPEDFATYYCLQYVRYPWTFGGGTKVEIK
notes: humanized variant, HC with KD; also called Tau01 HCKD HuG4K
[6]
  EC50: 2.02 nM

B7: Tau01 HBKJ (antibody, V domains shown)
VH: EVQVVESGGGLVQPGGSLKLSCAASGFTFNTYAMNWVRQASGKGLEWVARIRSKSNNYATYYADSVKGRFTISRDDSKSMVYLQMDSLKTEDTAVYYCVGGGDFWGQGTLVTVSS
VL: DIQMTQSPSSLSASVGDRVTITCRASQEISVYLGWYQQKPGKAPKRLIYGAFSLQSGVPSRFSGSRSGTEFTLTISSLQPEDFATYYCLQYVRYPWTFGGGTKVEIK
notes: human IgG4 kappa (HuG4K)
[1]
  EC50: 0.811 nM

B8: Tau01 HCKO (antibody, V domains shown)
VH: LVQLVESGGGLVQPGGSLKLSCAASGFTFNTYAMNWVRQASGKGLEWVGRIRSKSNNYATYYAASVKGRFTISRDDSKSMAYLQMDSLKTEDTAVYYCVGGGDFWGQGTLVTVSS
VL: DIQMTQSPSSLSASVGDRVTITCRASQEISVYLGWYQQKPGKAPKRLIYGAFSLQSGVPSRFSGSRSGTEYTLTISSLQPEDFATYYCLQYVRYPWTFGGGTKVEIK
notes: human IgG4 kappa (HuG4K)
[5]
  EC50: 0.537 nM

B9: Tau01 HMKL (antibody, V domains shown)
VH: LVQLVESGGGLVQPGGSLKLSCAASGFTFNTYAMNWVRQASGKGLEWVARIRSKSNNYATYYAASVKGRFTISRDDSKSMAYLQMDSLKTEDTAVYYCVGGGDFWGQGTLVTVSS
VL: DIQMTQSPSSLSASVGDRVTITCRASQEISVYLSWFQQKPGKAIKRLIYGAFKLQSGVPSRFSGSRSGTEYTLTISSLQPEDFATYYCLQYVRYPWTFGGGTKVEIK
notes: human IgG4 kappa (HuG4K)
[2]
  EC50: 0.47 nM

B10: Tau01 HMKM HuG4k (antibody, V domains shown)
VH: LVQLVESGGGLVQPGGSLKLSCAASGFTFNTYAMNWVRQASGKGLEWVARIRSKSNNYATYYAASVKGRFTISRDDSKSMAYLQMDSLKTEDTAVYYCVGGGDFWGQGTLVTVSS
VL: DIQMTQSPSSLSASVGDRVTITCRASQEISVYLSWFQQKPGKAIKRLIYGAFSLQSGVPSRFSGSRSGTEYTLTISSLQPEDFATYYCLQYVRYPWTFGGGTKVEIK
notes: human IgG4 kappa (HuG4K)
[7]
  Kd: 0.11 nM
  koff: 0.0181 s⁻¹
  kon: 1.65e+08 M⁻¹ s⁻¹
[8]
  koff: 0.0181 s⁻¹
[3]
  koff: 0.000264 s⁻¹
[4]
  Kslow: 0.000553

B11: Tau01 HCKN (antibody, V domains shown)
VH: LVQLVESGGGLVQPGGSLKLSCAASGFTFNTYAMNWVRQASGKGLEWVGRIRSKSNNYATYYAASVKGRFTISRDDSKSMAYLQMDSLKTEDTAVYYCVGGGDFWGQGTLVTVSS
VL: DIQMTQSPSSLSASVGDRVTITCRASQEISVYLGWYQQKPGKAPKRLIYGAFTLQSGVPSRFSGSRSGTEYTLTISSLQPEDFATYYCLQYVRYPWTFGGGTKVEIK
notes: human IgG4 kappa (HuG4K)
[5]
  EC50: 0.574 nM

B12: HBKF (antibody, V domains shown)
VH: EVQVVESGGGLVQPGGSLKLSCAASGFTFNTYAMNWVRQASGKGLEWVARIRSKSNNYATYYADSVKGRFTISRDDSKSMVYLQMDSLKTEDTAVYYCVGGGDFWGQGTLVTVSS
VL: DIQMTQSPSSLSASVGDRVTITCRASQEISVYLGWYQQKPGKAIKRLIYGAFKLQSGVPSRFSGSRSGTEFTLTISSLQPEDFATYYCLQYVRYPWTFGGGTKVEIK
notes: humanized variant, HB with KF; also called Tau01 HBKF HuG4K
[1]
  EC50: 0.786 nM

B13: Tau01 HCKL (antibody, V domains shown)
VH: LVQLVESGGGLVQPGGSLKLSCAASGFTFNTYAMNWVRQASGKGLEWVGRIRSKSNNYATYYAASVKGRFTISRDDSKSMAYLQMDSLKTEDTAVYYCVGGGDFWGQGTLVTVSS
VL: DIQMTQSPSSLSASVGDRVTITCRASQEISVYLSWFQQKPGKAIKRLIYGAFKLQSGVPSRFSGSRSGTEYTLTISSLQPEDFATYYCLQYVRYPWTFGGGTKVEIK
notes: human IgG4 kappa (HuG4K)
[5]
  EC50: 0.835 nM

B14: Tau01 HBKI (antibody, V domains shown)
VH: EVQVVESGGGLVQPGGSLKLSCAASGFTFNTYAMNWVRQASGKGLEWVARIRSKSNNYATYYADSVKGRFTISRDDSKSMVYLQMDSLKTEDTAVYYCVGGGDFWGQGTLVTVSS
VL: DIQMTQSPSSLSASVGDRVTITCRASQEISVYLGWYQQKPGKAPKRLIYGAFKLQSGVPSRFSGSRSGTEYTLTISSLQPEDFATYYCLQYVRYPWTFGGGTKVEIK
notes: human IgG4 kappa (HuG4K)
[1]
  EC50: 0.705 nM

B15: HCKF (antibody, V domains shown)
VH: LVQLVESGGGLVQPGGSLKLSCAASGFTFNTYAMNWVRQASGKGLEWVGRIRSKSNNYATYYAASVKGRFTISRDDSKSMAYLQMDSLKTEDTAVYYCVGGGDFWGQGTLVTVSS
VL: DIQMTQSPSSLSASVGDRVTITCRASQEISVYLGWYQQKPGKAIKRLIYGAFKLQSGVPSRFSGSRSGTEFTLTISSLQPEDFATYYCLQYVRYPWTFGGGTKVEIK
notes: humanized variant, HC with KF; also called Tau01 HCKF HuG4K
[6]
  EC50: 2.25 nM

B16: HBKH (antibody, V domains shown)
VH: EVQVVESGGGLVQPGGSLKLSCAASGFTFNTYAMNWVRQASGKGLEWVARIRSKSNNYATYYADSVKGRFTISRDDSKSMVYLQMDSLKTEDTAVYYCVGGGDFWGQGTLVTVSS
VL: DIQMTQSPSSLSASVGDRVTITCRASQEISVYLGWYQQKPGKAPKRLIYGAFKLQSGVPSRFSGSRSGSEFTLTISSLQPEDFATYYCLQYVRYPWTFGGGTKVEIK
notes: humanized variant, HB with KH; also called Tau01 HBKH HuG4K
[1]
  EC50: 0.807 nM
